One data set has as its target T1, TIA-1 RRM23 (UniProt P31483 104-288).
T1 sequence: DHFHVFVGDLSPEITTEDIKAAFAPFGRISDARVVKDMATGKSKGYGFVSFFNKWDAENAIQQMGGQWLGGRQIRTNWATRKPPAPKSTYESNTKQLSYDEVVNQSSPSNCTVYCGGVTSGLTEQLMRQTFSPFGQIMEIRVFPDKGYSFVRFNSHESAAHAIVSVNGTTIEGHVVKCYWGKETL
Briefly: fluorescence anisotropy. In general terms: In fluorescence polarisation assays a small probe gives low polarisation when free and higher when bound to something large.

The target of another data set is T2, SXL RRM12 (UniProt P19339 122-294).
T2 sequence: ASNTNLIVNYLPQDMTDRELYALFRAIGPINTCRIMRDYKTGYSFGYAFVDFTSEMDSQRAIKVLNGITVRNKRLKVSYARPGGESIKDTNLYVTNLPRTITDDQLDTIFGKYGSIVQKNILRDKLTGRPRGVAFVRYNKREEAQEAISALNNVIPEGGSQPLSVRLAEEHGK
Briefly: fluorescence anisotropy.

In the case of UUUUUUUUUUUUUUUUUUUU (ssRNA) [U20], the Kd (usually the free concentration of one partner at which half of the binding sites on the other are occupied at equilibrium, for simple one-to-one binding) with TIA-1 RRM23 is 33 ± 6 nM; with SXL RRM12, 7 ± 3 nM.

The values are drawn from publication PMC3050080.
